The target of test [1] is T1, human CD47-Fc (human, UniProt Q08722 19-139).
T1 construct: also called hCD47; human CD47-Fc protein; not shown: Fc part
Put plainly: direct ELISA, coated human CD47-Fc, OD450.

In test [2] the target is T2, cynomolgus monkey CD47-Fc (cynomolgus monkey, UniProt Q08722 19-139 (human entry), limits assumed).
T2 construct: also called cCD47; cyno CD47-Fc; not shown: Fc part
T2 chain: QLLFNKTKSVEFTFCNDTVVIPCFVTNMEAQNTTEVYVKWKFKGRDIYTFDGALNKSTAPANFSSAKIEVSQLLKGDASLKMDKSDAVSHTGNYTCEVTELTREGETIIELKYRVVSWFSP
Briefly: direct ELISA, coated cyno CD47-Fc, OD450.

For test [3], the target named is T1, human CD47-Fc. Briefly: HTRF epitope competition; competitor Tb-labelled h5F9G4 IgG1 on biotinylated human CD47-Fc.
Target sequence in this assay (Q08722 19-139 limits assumed): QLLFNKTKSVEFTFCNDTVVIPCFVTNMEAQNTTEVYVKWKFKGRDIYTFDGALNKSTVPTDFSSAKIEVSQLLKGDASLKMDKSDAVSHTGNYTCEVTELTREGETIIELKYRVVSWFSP

B1: A-H3, human IgG1null (antibody, V domains shown)
VH: EVQLVQSGAEVKKPGESLKISCKGSGYSFTNYNIHWVRQMPGKGLEWMGTIYPGNSDTSYNPSFQGQVTISADKSISTAYLQWSSLKASDTAMYYCARGGVRAMDYWGQGTLVTVSS
VL: DIVMTQSPLSLPVTPGEPASISCRSSQSLLHSKGNTYLGWYLQKPGQSPQLLIYKGSNRFSGVPDRFSGSGSGTDFTLKISRVEAEDVGVYYCMQASQVPYTFGQGTKLEIK
notes: IgG1null; also called Clone A-H3
In the case of B1, the binding result (in the test with human CD47-Fc [1]; in test [2]) was “binds” throughout.

B2: VH1.7/VL1.4, human IgG1null (antibody, V domains shown)
VH: QVQLVQSGAEVKKPGASVKVSCKASGYTFTNYNIHWVRQAPGQRLEWMGTIYPGNDDTSYSQKFQGRVTITADTSASTAYMELSSLRSEDTAVYYCARGGFRAMDYWGQGTLVTVSS
VL: DIVMTQSPLSLPVTPGEPASISCRSSQSLLHSNAYNYLGWYLQKPGQSPQLLIYKGSNRFSGVPDRFSGSGSGTDFTLKISRVEAEDVGVYYCFQASQVPYTFGQGTKLEIK
notes: VH assembled as for m35; IgG1null
Turning to B2, the IC50 with human CD47-Fc [3] amounted to 22.6 µg/mL.

B3: VH1.12/VL1.8, human IgG1null (antibody, V domains shown)
VH: QVQLVQSGAEVKKPGASVKVSCKASGYTFTNYAMHWVRQAPGQRLEWMGTIYPGNDNTKYNQKFQGRVTITADTSASTAYMELSSLRSEDTAVYYCARGGFRAMDYWGQGTLVTVSS
VL: DIVMTQSPLSLPVTPGEPASISCRSSQSLLHSNAYNYLGWYLQKPGQSPQLLIYKGSNRFSGVPDRFSGSGSGTDFTLKISRVEAEDVGVYYCMQASHVPYTFGQGTKLEIK
notes: IgG1null; also called VH1.12/VL8
B3 yielded an IC50 with human CD47-Fc [3] of 16.3 µg/mL.

B4: VH1.7/VL1.5, human IgG1null (antibody, V domains shown)
VH: QVQLVQSGAEVKKPGASVKVSCKASGYTFTNYNIHWVRQAPGQRLEWMGTIYPGNDDTSYSQKFQGRVTITADTSASTAYMELSSLRSEDTAVYYCARGGFRAMDYWGQGTLVTVSS
VL: DIVMTQSPLSLPVTPGEPASISCRSSQSLLHSNAYNYLGWYLQKPGQSPQLLIYKGSNRFSGVPDRFSGSGSGTDFTLKISRVEAEDVGVYYCFQASHVPYTFGQGTKLEIK
notes: VH assembled as for m35; IgG1null; also called Clone VH1.7/VL1.5
As to B4, the half-maximal inhibitory concentration (IC50) with human CD47-Fc [3] was found to be 9.53 µg/mL.

B5: VH1.1/VL1.6, human IgG1null (antibody, V domains shown)
VH: QVQLVQSGAEVKKPGASVKVSCKASGYTFTNYAMHWVRQAPGQRLEWMGTIYPGNDDTKYNQKFQGRVTITADTSASTAYMELSSLRSEDTAVYYCARGGYRAEDYWGQGTLVTVSS
VL: DIVMTQSPLSLPVTPGEPASISCRSSQSLLHSNANTYLGWYLQKPGQSPQLLIYKGSNRFSGVPDRFSGSGSGTDFTLKISRVEAEDVGVYYCFQASHVPYTFGQGTKLEIK
notes: cf. claim 50); IgG1null; also called Clone VH1.1/VL1.6
Molecule B5 displayed an IC50 in the test with human CD47-Fc [3] of 6.96 µg/mL.

B6: D-C12, human IgG1null (antibody, V domains shown)
VH: EVQLVQSGAEVKKPGESLKISCKGSGYSFTNYNIHWVRQMPGKGLEWMGTIYPGNSDTRYNPKFQGQVTISADKSISTAYLQWSSLKASDTAMYYCARGGFRAMDYWGQGTLVTVSS
VL: DIVMTQSPLSLPVTPGEPASISCRSSQSLLHSNGNTYLGWYLQKPGQSPQLLIYKGSNRFSGVPDRFSGSGSGTDFTLKISRVEAEDVGVYYCMQGSHVPYTFGQGTKLEIK
notes: IgG1null; also called Clone D-C12
As to B6, the binding result (with human CD47-Fc [1]; in test [2]) was “binds” each time.

B7: B-D2, human IgG1null (antibody, V domains shown)
VH: EVQLVQSGAEVKKPGESLKISCKGSGYSFTNYNIHWVRQMPGKGLEWMGTIYPGNSDTRYNPSFQGQVTISADKSISTAYLQWSSLKASDTAMYYCARGGERAMDYWGQGTLVTVSS
VL: DIVMTQSPLSLPVTPGEPASISCRSSQSLLHSNGNTYLGWYLQKPGQSPQLLIYKGSNRFSGVPDRFSGSGSGTDFTLKISRVEAEDVGVYYCFQASQVPYTFGQGTKLEIK
notes: IgG1null; also called Clone B-D2
Turning to B7, the binding result (in the test with human CD47-Fc [1]; in test [2]) was “binds” throughout.

B8: E-C5, human IgG1null (antibody, V domains shown)
VH: EVQLVQSGAEVKKPGESLKISCKGSGYSFTNYNIHWVRQMPGKGLEWMGTIYPGDSDTSYNPKFQGQVTISADKSISTAYLQWSSLKASDTAMYYCARGGYRAQDYWGQGTLVTVSS
VL: DIVMTQSPLSLPVTPGEPASISCRSSQSLLHSNGNTYLGWYLQKPGQSPQLLIYKGSNRFSGVPDRFSGSGSGTDFTLKISRVEAEDVGVYYCMQASHVPYTFGQGTKLEIK
notes: IgG1null; also called Clone E-C5
For the molecule B8, the binding result (with human CD47-Fc [1]; in test [2]) was “binds” in each case.

B9: C-D5, human IgG1null (antibody, V domains shown)
VH: EVQLVQSGAEVKKPGESLKISCKGSGYSFTNYNIHWVRQMPGKGLEWMGTIYPGDSDTRYNPKFQGQVTISADKSISTAYLQWSSLKASDTAMYYCARGGIRAMDYWGQGTLVTVSS
VL: DIVMTQSPLSLPVTPGEPASISCRSSQSLLHSNYNTYLGWYLQKPGQSPQLLIYKGSNRFSGVPDRFSGSGSGTDFTLKISRVEAEDVGVYYCFQGSQTPYTFGQGTKLEIK
notes: IgG1null; also called Clone C-D5
Regarding B9, the binding result (with human CD47-Fc [1]; in test [2]) was “binds” each time.

B10: VH1.9/VL1.6, human IgG1null (antibody, V domains shown)
VH: QVQLVQSGAEVKKPGASVKVSCKASGYTFTNYAMHWVRQAPGQRLEWMGTIYPGNDDTKYSQKFQGRVTITADTSASTAYMELSSLRSEDTAVYYCARGGYRAEDYWGQGTLVTVSS
VL: DIVMTQSPLSLPVTPGEPASISCRSSQSLLHSNANTYLGWYLQKPGQSPQLLIYKGSNRFSGVPDRFSGSGSGTDFTLKISRVEAEDVGVYYCFQASHVPYTFGQGTKLEIK
notes: IgG1null
B10 showed an IC50 with human CD47-Fc [3] of 11.1 µg/mL.

B11: VH1.6/VL1.6, human IgG1null (antibody, V domains shown)
VH: QVQLVQSGAEVKKPGASVKVSCKASGYTFTNYAMHWVRQAPGQRLEWMGTIYPGNDDTSYSQKFQGRVTITADTSASTAYMELSSLRSEDTAVYYCARGGYRAEDYWGQGTLVTVSS
VL: DIVMTQSPLSLPVTPGEPASISCRSSQSLLHSNANTYLGWYLQKPGQSPQLLIYKGSNRFSGVPDRFSGSGSGTDFTLKISRVEAEDVGVYYCFQASHVPYTFGQGTKLEIK
notes: as for B2
Molecule B11 gave an IC50 with human CD47-Fc [3] of 14 µg/mL.

B12: E-D6, human IgG1null (antibody, V domains shown)
VH: EVQLVQSGAEVKKPGESLKISCKGSGYSFTNYNIHWVRQMPGKGLEWMGTIYPGDSDTSYNPKFQGQVTISADKSISTAYLQWSSLKASDTAMYYCARGGYRAEDYWGQGTLVTVSS
VL: DIVMTQSPLSLPVTPGEPASISCRSSQSLLHSNGNTYLGWYLQKPGQSPQLLIYKGSNRFSGVPDRFSGSGSGTDFTLKISRVEAEDVGVYYCMQGSHVPYTFGQGTKLEIK
notes: IgG1null; also called Clone E-D6
Turning to B12, the binding result (with human CD47-Fc [1]; in test [2]) was “binds” in each case.

B13: B-A6, human IgG1null (antibody, V domains shown)
VH: EVQLVQSGAEVKKPGESLKISCKGSGYSFTNYNIHWVRQMPGKGLEWMGTIYPGDSDTRYNQKFQGQVTISADKSISTAYLQWSSLKASDTAMYYCARGGIRAMDYWGQGTLVTVSS
VL: DIVMTQSPLSLPVTPGEPASISCRSSQSLLHSNGNTYLGWYLQKPGQSPQLLIYKGSNRFSGVPDRFSGSGSGTDFTLKISRVEAEDVGVYYCFQGSHVPYIFGQGTKLEIK
notes: IgG1null; also called Clone B-A6
On to B13, for which the binding result (with human CD47-Fc [1]; in test [2]) was “binds” each time.

B14: VH1.7/VL1.6, human IgG1null (antibody, V domains shown)
VH: QVQLVQSGAEVKKPGASVKVSCKASGYTFTNYNIHWVRQAPGQRLEWMGTIYPGNDDTSYSQKFQGRVTITADTSASTAYMELSSLRSEDTAVYYCARGGFRAMDYWGQGTLVTVSS
VL: DIVMTQSPLSLPVTPGEPASISCRSSQSLLHSNANTYLGWYLQKPGQSPQLLIYKGSNRFSGVPDRFSGSGSGTDFTLKISRVEAEDVGVYYCFQASHVPYTFGQGTKLEIK
notes: VH assembled as for m35; IgG1null; also called Clone VH1.7/VL1.6
As to B14, the IC50 with human CD47-Fc [3] was found to be 4.64 µg/mL.

The values above are taken from US20260015420A1 (CENTESSA PHARMACEUTICALS UK, published 2026).
